Laboratory results from patent US20170260508A1.

Biological target: chimeric LILRB2-PILRβ receptor (aa 24-458 of hLILRB2) on mouse T cell hybridoma NFAT-GFP reporter cells (human) (UniProt Q8N423)
Experiment: cell-based or functional assay

chimeric LILRB2-PILRβ receptor (aa 24-458 of hLILRB2) on mouse T cell hybridoma NFAT-GFP reporter cells (human), sequence (Q8N423 other isoform, or with tags, fused parts or gaps mutant limits assumed, form in doubt): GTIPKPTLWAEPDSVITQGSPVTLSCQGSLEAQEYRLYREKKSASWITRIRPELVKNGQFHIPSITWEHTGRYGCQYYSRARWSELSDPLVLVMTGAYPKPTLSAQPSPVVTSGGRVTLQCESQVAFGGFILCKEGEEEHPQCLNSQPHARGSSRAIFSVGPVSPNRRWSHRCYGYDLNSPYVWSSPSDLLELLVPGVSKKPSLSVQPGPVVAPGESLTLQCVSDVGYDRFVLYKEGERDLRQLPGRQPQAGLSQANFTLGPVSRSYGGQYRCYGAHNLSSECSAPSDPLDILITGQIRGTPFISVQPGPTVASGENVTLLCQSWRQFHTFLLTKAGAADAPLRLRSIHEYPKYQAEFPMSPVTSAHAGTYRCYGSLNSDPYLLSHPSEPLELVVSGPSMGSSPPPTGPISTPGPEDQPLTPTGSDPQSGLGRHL

GFP expression of LILRB2 reporter cells, immobilized monomeric GST-Angptl2: 20% | GFP expression of LILRB2 reporter cells, soluble monomeric GST-Angptl2: 3.56% | GFP induction of LILRB2 reporter cells by immobilized Angptl2, no antibody: 19.9%
Substance: GST-human Angptl2, bacterially expressed (GST-Angptl2-FLAG) (from UniProt Q9UKU9 23-493) (ligand)
